This passage reports signal score results from patent EP4549938A1.

The target in this experiment is No. 1 APOA2-like protein (vasculitis-associated apolipoprotein A2, VAP2) (human). The experiment is described as follows: Western blot band score with VasSF, COVID-19 patient sera at hospital admission (Fig. 4). Background: Immunoblotting shows a protein as a band on a membrane.

B1: VasSF, single chain variable region fragment (ScFv) (scFv, V domains shown)
VH: QVHLVESGGGLVQPGRSLRLSCAVSGFTFASYAMHWVRQAPGKGLEWVAGISKDGSNKRHADSLEGRFTISRDNSKNTLYLQVSGLRAEDTAVYYCARSQDPTDFDWLLSEHWGQGTLVTVSS
Consider B1, for which the signal score is 4 /2 µL serum.
